Measured values as given in the domain aggregation screens of Martell et al. (2025).

Assay: soluble fraction after stress (log2 fold change); higher = more stays soluble; pooled small domains, quantitative proteomics
Conditions: stress: pH 4
In short: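 Pooled custom libraries of small protein domains were stressed at pH 4 and then measured by high-throughput quantitative proteomics. The fold change in the amount of each domain that stays soluble after the acid stress serves as a measure of aggregation propensity. Fold changes are given on a log2 scale, and higher values mean more of the domain stayed soluble.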

Sequence | soluble fraction (log2)
HMPKYLNIYHELAQRIQEGALPAETKLPSETELMQEFEASRGTVRKAIDALQEKGFVRKHQGKGVFVLSQ | 0.152
HMNKEHINLDSSKFLSLLNKTKISMSNDETRHYLNGIYIHPTVSNKSSYLTGVATDSHRLSSSSIPVD | -0.311
HMTLVSALDQKTKDSAYYRGTYLAGKISAGKMTKQEAVADIMKNYDGNTAAMKVAAEKAGVSDLLSQTVL | 0.0773
HMLDLSEEEQKIVSILEKQGNLQINSLVVEADIPVHKINAILFELEMKGVVRVLALSLIHISEP | -0.628
HMEQISIETRIEQLLARLSETEASGFEELFADTSSRADLITTFLALLEMIRLKLVRVFQDGSFGPIRIYKR | -1.5
HMYPDNSGDIQQLAQNIFRQENVSVDRDGLALISSRLGSDHAATRSEIEKLALLAGPGGTLTFETISEVLG | -0.942
HMIDAAHLEKAILSLPEGARAVFVLIETEGFAHREVAELLGISEGTSKSQLNYAKKRLREILV | -0.0621
HMAAFGDLLSELRRDMNMTQDELAKVLFVSPGTISNYENNIHFPDVPKLKQIAQYFGVTTDYLLG | -1
HMNSYKGELLVDDKNIRLDLYLFNQFNFFSRTKIKNYILKGNVLVNNNKTSPSYILKGSEKIYYDFSVS | -0.251
HMGSLKEKIVLLEKLYQQNPSEEIKLLLINTYQLNHQYIQARKLFFTLTPEQKEKLPLASEFLIFL | -0.725
HMITALLPGTVLIREFDGRDYHVTVATDGRFEMDGHKYPSLSAVAKHITGTQWSGPAFFGLN | -0.0323
HMGKDIYLTSGWVEKFDELNEFSNSVDNYDRLNQFGMYENAIIGDTGVIKITDEMIFDLYEKIQVPVEAGP | -1.04
HMVLFDLSEREKEVLKLLADGNSYKMIASRLEITYFTVNAHLKKIYEKLQVHSASEAVSVALRNSL | -1.36
HMVTEKNALTIEIEDLTKRFGNQRESLLPILQEVQLKHGHISDFAQQEIARLLDIHPVEVYGVVTFFSFLS | -2.43
HMTTKYVAVHESKDGYWTIASKPSSKEDAEAMLGGTPKNEVGKVVTLEEAKAHKKTLGEEYLYE | ≥ 0.43
HMATEPLQPRVEVLGSTLATTNGARIVGVYDMSGREVSATQLSKGVYIVKVTNGSVTATQKVFI | 0.254
HMEHLTATERHLVAYLEAHLGQVPSLSITKLSQEANVSTASIVRTMKKLGYDGFTAFKHAIKQQLR | 0.156
HMGSIEASFEEDVRRYLARKSMTTTEISKKMRQKRPDMSRDQLMTLLANAIKRIKPIKKKIKGTLYLSLE | 0.259
HMPFTLDGVNEGSRNDQAARMSGYLISKNLNMDFIKFFMQSWNRQNSPPLSQREINSVVDNVKRTHDRKNK | -0.697
HMETGEDSLRRYFNSLPGSASKREILEDNPTVSQRTTERILQKLQAEGFIEKVGAARATRYRKVKQ | 0.27
HMTVVLPGESLTVNIIQEGKELGQGVGYLDDGTMVVIEDGRRYIDQTIEVTVTRVLQTVAGRMIFAQLT | -0.886
HMLPLHFIEIVSLKKIDTLTKRKELINYAFSKNEKTYIYKLAFKKKSELDNLYKEINLFNEIINIDIRHS | -0.943
HMTIQNSILDEIPNIGASRKRAILEAFGSVHRLRKASPEMISAKVEGIGPEMAQAIHDYLVKHPAT | 0.223
HMHANAALTPRQRLRLAQKIVDEEWTVAAAADYFRVSWPTAAKWARRYVELGEAGMADRSSRP | -0.641
HMQKLLGPFEDFVKIKLDKYPDTKAAQMHDWLKEHYPDFPEVTPKTVYNFVMYVRQRHNIPIPD | -0.276
HMGGSIDITTAPPGAKIYLDADYYGKTPKRLENISAGTYRLHLLHPEKGEVYRSVTLNEKNGTLKIDENLN | 0.0705
HMEDIPENIRYKFLLKELKENEHLNILDKENIARKLTEIDLPELEKELLENEILNSTIKDYLGIKLV | -0.912
HMGGFSVTAEAFDGTPEVGKTVGFTAGSTKIKVEDTKGDATFGTILEKETVGFGEGKYTYFYIGL | -0.276
HMGWEDLVGKTAVVKVALAPVGMVFFRGEFWSAISETGRIEPGEEVTISRIDGLKLYVTKKRIM | ≥ 0.43
HMTEEVIIQNYIGKNFNDVRDELEAKGITVDEPNMKYSDEFKENTIMAQSIKPGQPLKPGGFNSIKFDVS | 0.147
